Source: patent US20220024982A1 (Bicycle, published 2022)
Blank lines part the entries; values can stand above or below the binder they belong to. Numbered stars: 1 amine (or outer) side, 2 acyl side, 3 side chain; on linkers, the order of the positions; unused ones are H or OH. Bridge positions count the residues as written; N and C are the ends. Square brackets hold non-standard residues; d marks the D form. Ends that are not written are not given here. TATA = O=C(CC[*:1])N1CN(C(=O)CC[*:2])CN(C(=O)CC[*:3])C1; fluorescein = fluorescein (fluorescent label, [FI]); 2Nal = N[C@@H](Cc1ccc2ccccc2c1)C(=O)O; TBMB = c1c(C[*:1])cc(C[*:3])cc1C[*:2]; hArg = N=C(N)NCCCC[C@H](N)C(=O)O; Tle = CC(C)(C)[C@H](N)C(=O)O; Sar = CNCC(=O)O

Key:
[1] = biological target: T1, MT1-MMP Hemopexin domain (PEX) (UniProt P50281 319-511); assay: FP direct binding
T1 construct: domain: Hemopexin domain (PEX); Target of the fluorescence polarisation assays; also called hemopexin of MT1-MMP; MMP14

[2] = biological target: T1, MT1-MMP Hemopexin domain (PEX); assay: FP competition vs tracer 17-69-07-N040
From the text: (§1) Here, a pre-formed complex of PEX with the fluorescent PEX-binding tracer is titrated with free, non-fluoresceinated bicyclic peptide. Since all 17-69-based peptides are expected to bind at the same site, the titrant will displace the fluorescent tracer from PEX. Dissociation of the complex can be measured quantitatively, and the Kd of the competitor (titrant) to the target protein determined. The advantage of the competition method is that the affinities of non-fluoresceinated bicyclic peptides can be determined accurately and rapidly.
(§2) Subsequently, the non-fluorescent competitor bicyclic peptide (usually just the bicycle core sequence) is titrated, such that it displaces the fluorescent tracer from the target protein. The displacement of the tracer is measured and associated with a drop in fluorescence polarisation. The drop in fluorescence polarisation is proportional to the fraction of target protein bound with the non-fluorescent titrant, and thus is a measure of the affinity of titrant to target protein.
(§3) The raw data is fit to the analytical solution of the cubic equation that describes the equilibria between fluorescent tracer, titrant, and binding protein. The fit requires the value of the affinity of fluorescent tracer to the target protein, which can be determined separately by direct binding FP experiments (see previous section).

[3] = biological target: T2, human MT1 MMP14 protein, hemopexin domain (obtained from Merck Millipore) (human, UniProt P50281 319-511, limits assumed, randomly biotinylated (EZ-Link Sulfo-NHS-LC-LC-Biotin)); assay: SPR, biotinylated target on streptavidin chip
T2 construct: domain: hemopexin domain; Target of the SPR assay, captured on streptavidin; also called biotinylated MT1 MMP14
Method: Streptavidin was immobilized on the chip using standard amine-coupling chemistry at 25° C. with HBS-N (10 mM HEPES, 0.15 M NaCl, pH 7.4) as the running buffer. […] Buffer was changed to PBS/0.05% Tween 20 and a dilution series of the peptides was prepared in this buffer with a final DMSO concentration of 0.5%. […] Data were corrected for DMSO excluded volume effects. All data were double-referenced for blank injections and reference surface using standard processing procedures and data processing and kinetic fitting were performed using Scrubber software, version 2.0c (BioLogic Software).

[4] = biological target: T1, MT1-MMP Hemopexin domain (PEX); assay: FP competition, plate 1, tracer not named
[5] = biological target: T1, MT1-MMP Hemopexin domain (PEX); assay: FP competition vs tracer 17-69-07-N041
From the text: as §1, §2, §3

[6] = biological target: T1, MT1-MMP Hemopexin domain (PEX); assay: FP competition vs tracer 17-88-N006
Method: as §2, §3

Kd [1]: 0.52 nM
Binder: ACYNEFGCEDFYDICA[Sar][Sar][Sar][Sar][Sar][Sar]K(fluorescein) (linker 2-8-15 via TBMB, fluorescent tracer) [17-69-07-N040]

Kd [2]: > 2100 nM
Binder: ACDSPEECFYPLECA (linker 2-8-14 via TATA) [17-122-04]

Kd [3]: 400 nM
Binder: Ac-LPPCV[hArg]ECALL[2Nal]P[hArg]TC (linker 4-8-16 via TATA) [BCY10223]

Ki [4]: 80 nM
Binder: Ac-LPPC[Tle][hArg]ECALLFP[hArg]TC (linker 4-8-16 via TATA) [BCY11149]

Kd [2]: > 139 nM
Binder: ACEEAFYPCHHPLYRCA (linker 2-9-16 via TATA (inferred)) [17-126-25]

Kd [5]: > 282 nM
Binder: ACEEQFYPCTHALYTCA (linker 2-9-16 via TATA) [17-126-02]

Kd [1]: 3.4 nM
Binder: fluorescein-G[Sar][Sar][Sar][Sar][Sar]ACYNEFACEDFYDICA (linker 8-14-21 via TBMB, fluorescent tracer) [17-69-07-N041]

Kd [2]: 200 nM
Binder: ACDEQFYPCNHRLNTCA (linker 2-9-16 via TATA (inferred)) [17-126-24]

Kd [5]: > 430 nM
Binder: ACVEEFYPCDHPLYSCA (linker 2-9-16 via TATA) [17-126-03]

Kd [1]: 1 nM
Binder: fluorescein-G[Sar][Sar][Sar][Sar][Sar]ACMNQFGCEDFYDICA (linker 8-14-21 via TBMB, fluorescent tracer) [17-69-12-N004]

Kd [1]: 14 nM
Binder: ACPYSWETCLFGDYRCA[Sar][Sar][Sar][Sar][Sar][Sar]K(fluorescein) (linker 2-9-16 via TBMB) [17-88-N006]

Kd [1]: 50 nM
Binder: ACPYDWATCLFGDYRCA[Sar][Sar][Sar][Sar][Sar][Sar]K(fluorescein) (linker 2-9-16 via TBMB) [17-88-226-N002]

Kd [6]: > 82.8 nM
Binder: ACYEECRLLFPRTCA (linker 2-6-14 via TATA) [17-120-21]

Kd [2]: > 280 nM
Binder: ACADECRLLFPKTCA (linker 2-6-14 via TATA) [17-120-05]

Kd [2]: > 929 nM
Binder: ACLEPDECFYPMECA (linker 2-8-14 via TATA) [17-122-02]

Kd [5]: > 316 nM
Binder: ACEEEFYPCGHPLYVCA (linker 2-9-16 via TATA) [17-126-01]

Kd [2]: > 378 nM
Binder: ACKEPQECFYPLKCA (linker 2-8-14 via TATA) [17-122-03]
